Test [1] concerns the target T1, natural human type I interferon receptor (IFN-R) on the surface of human cells (human) (UniProt P17181).
T1 sequence: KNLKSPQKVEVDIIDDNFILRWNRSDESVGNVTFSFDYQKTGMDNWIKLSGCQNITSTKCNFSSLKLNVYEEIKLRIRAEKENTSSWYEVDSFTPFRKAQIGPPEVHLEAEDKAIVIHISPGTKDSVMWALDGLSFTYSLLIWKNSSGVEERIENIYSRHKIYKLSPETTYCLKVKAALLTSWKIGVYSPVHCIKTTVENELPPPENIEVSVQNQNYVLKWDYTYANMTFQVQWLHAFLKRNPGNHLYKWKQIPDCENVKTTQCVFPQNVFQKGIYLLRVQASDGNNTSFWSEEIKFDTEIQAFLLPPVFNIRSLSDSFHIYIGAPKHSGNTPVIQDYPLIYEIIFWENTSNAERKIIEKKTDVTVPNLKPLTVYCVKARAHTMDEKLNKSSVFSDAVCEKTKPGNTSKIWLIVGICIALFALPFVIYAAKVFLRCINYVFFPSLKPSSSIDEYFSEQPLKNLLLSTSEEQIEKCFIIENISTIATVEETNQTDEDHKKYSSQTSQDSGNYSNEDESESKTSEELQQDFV
The test is described as follows: inhibition of binding of 125I-IFN alpha 2 (100 pM) to K562 cells, 4 C; competitor: labelled IFN alpha 2.

Test [2] has as its target T1, natural human type I interferon receptor (IFN-R) on the surface of human cells (human). Description: inhibition of binding of 125I-IFN alpha 2 (100 pM) to Ly28 cells, 4 C; competitor: labelled IFN alpha 2.
The target is the same in test [3]. Description: inhibition of binding of 125I-IFN alpha 2 (100 pM) to Daudi cells, 4 C; competitor: labelled IFN alpha 2.
Test [4] has the same target. The test is described as follows: inhibition of binding of 125I-IFN alpha 2 (100 pM) to HL60 cells, 4 C; competitor: labelled IFN alpha 2.

This note sets out measurements from patent US20040191840A1.

As a reminder, the IC50 is the midpoint of a concentration-inhibition curve. A high value points to a need for much substance.

B1: monoclonal antibody 64G12 (antibody, from another filing, IgG1, V domains shown)
VH: QVTLKESGPGILKPSQTLSLTCSFSGFSLSTSGMGIGWIRQPSGKGLEWLAHIWWDDDKYYNPSLKSQLTISRDTSTNQVFLNITSVDTVDTATYYCGRNYYPYDAWFDYWGQGTLVTVS
VL: EIVLTQSPTTMAASPGEKITITCSASSSINSNHLHWYQQKPGFSPKVLIYRTSILASGVPTRFSGSGSGTSYSLTIGTMEAEDVATYYCQQGSNIPFTFGSGTELEIKR
Take B1: the IC50 is 0.4 µg/mL in test [1], 60 µg/mL in test [2], 0.4 µg/mL in test [3] and 11 µg/mL in test [4].
